Laboratory results published in US20110300138A1 (published 2011).

Molecular target: TSHR with Arg255 mutated to Ala, expressed in CHO cells (human) (UniProt P16473)
Assay: cell-based or functional assay

TSHR with Arg255 mutated to Ala, expressed in CHO cells (human), sequence (P16473 other isoform, or with tags, fused parts or gaps, change not shown): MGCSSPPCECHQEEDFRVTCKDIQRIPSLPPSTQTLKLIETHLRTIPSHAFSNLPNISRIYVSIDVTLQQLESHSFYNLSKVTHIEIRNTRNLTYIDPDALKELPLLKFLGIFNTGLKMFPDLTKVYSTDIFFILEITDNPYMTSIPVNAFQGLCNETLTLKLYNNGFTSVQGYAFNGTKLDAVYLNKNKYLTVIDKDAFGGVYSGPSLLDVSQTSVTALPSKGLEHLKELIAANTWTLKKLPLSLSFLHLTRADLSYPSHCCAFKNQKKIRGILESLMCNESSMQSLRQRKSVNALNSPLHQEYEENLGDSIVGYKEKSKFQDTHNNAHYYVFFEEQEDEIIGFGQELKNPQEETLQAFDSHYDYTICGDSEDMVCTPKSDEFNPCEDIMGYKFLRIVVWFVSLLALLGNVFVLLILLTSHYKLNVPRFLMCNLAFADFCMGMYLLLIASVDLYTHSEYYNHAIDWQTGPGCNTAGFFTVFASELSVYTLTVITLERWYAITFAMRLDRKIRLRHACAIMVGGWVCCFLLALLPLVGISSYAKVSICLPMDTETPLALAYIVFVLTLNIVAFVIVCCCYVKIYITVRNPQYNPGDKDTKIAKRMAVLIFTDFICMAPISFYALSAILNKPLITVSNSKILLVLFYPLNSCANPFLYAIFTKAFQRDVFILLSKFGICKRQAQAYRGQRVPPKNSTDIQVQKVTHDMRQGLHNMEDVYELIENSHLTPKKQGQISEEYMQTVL

% inhibition of TSH stimulation; 5B3 10 µg/mL: 12%
% inhibition of TSH stimulation; 5B3 100 µg/mL: 2%
Cyclic AMP produced; 5B3 10 µg/mL + TSH 3 ng/mL: 56.4 pmol/mL
Cyclic AMP produced; 5B3 100 µg/mL + TSH 3 ng/mL: 62.5 pmol/mL
Mutated/wild type (%) of cyclic AMP produced; 5B3 10 µg/mL + TSH 3 ng/mL: 75%
Mutated/wild type (%) of cyclic AMP produced; 5B3 100 µg/mL + TSH 3 ng/mL: 92%
Substance: 5B3 IgG (antibody)
